We go through six sequences from paper PMC7567884.

The target of the data set is T1, His-LexA (Synechocystis sp. PCC 6803) (UniProt P73722).
T1 sequence: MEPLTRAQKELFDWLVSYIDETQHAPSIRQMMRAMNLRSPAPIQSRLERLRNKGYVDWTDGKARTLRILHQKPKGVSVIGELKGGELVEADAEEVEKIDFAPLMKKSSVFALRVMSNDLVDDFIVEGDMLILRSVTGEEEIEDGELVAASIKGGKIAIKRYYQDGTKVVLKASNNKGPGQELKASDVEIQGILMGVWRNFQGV
The data set is described as follows: EMSA. The following applies: DIG Gel Shift Kit 2nd generation (Roche), as in Kizawa et al. (ref 9); 6% polyacrylamide gel; buffer, salt, pH and temperature not given.

On to “GTGGGAAAGTTCCACCTATACCATGCCTTGAAAATTGGTATGGGTCAAATCAGATAGTTCTTTTTGACTACTAATTTTGTTGCTAGCAGCGTTGTCAATCCCATCGCTCTGGTCTGGGATGCAAATGGCAGGAAAATTCTGCTCCCCTTGGGGGAAACGAGTTACGATGGGGGCGACGTTTGCTTTGTTTGCGACATAAT (double strand) [PggtB]”, for which the binding entry was “binds”.
For “TAACTCGTCACACCCCATGTGGGCAATGGTATCGTATTCTGCCCAGGTTTCCACCCCTTCAGCCGTTACTCGCAACTCTAGTTCGTGGGCTAGGTTGATAATTGAGGCGGTGATAGTTTTATTCTTGGCGTTTTTGTCAATGTGACGCACAAAGCTTTGATCTATTTTCAGCACATCAAAGGGGAACTGCTGCAGATAAC (double strand) [PggpP]”, the binding entry was “binds”.
For “TGCAATTTCCTCCTGTCCTCAGGGGACAAACTATATTAAGAAAGTTTACGGGATTATGTTGCCCGGGGAGAATTTGTCCGTGGGGGGTTTACCGACCGATCGCCGGTGAGAAGTACCAGGATAGCTTTATAAAGTTTTGTTACAATGGCAGAAGAAATTCTCAGAAACCCAGCC (double strand) [PnblB]”, the binding entry was “binds”.
Take “TGGGATCAAACAACAAGAAAAAATCAATTTACCCTGCCCATGGCAATAGTTTTAAGGTTAACAAAAAAAATAGAATTTACCGCAATCGACGGGTAAATTTCCAGAGGATACCCCCAACTCCAGAAGCAGAAATCTTGCCAGAAAAGCTTTTTCTGTTACTATACTTAACAAGTAACTACTTTTTCC (double strand) [PggpS]”: the binding result is on record as “binds”.
On to “TGGGCAGGGTAAATTGATTTTTTCTTGTTGTTTGATCCCATTTTCCAGTCTTTTTGACTTCCATTCAGTCAGGATAATTTTTGCAGTTTTTTTATGGAGTTTTGATAACATTGAGCTTTGCCCCCGGCGATCGCCTAGGGATAAACAATAAACGTGTGAACTAATATGCCTGGATTTATCCCTGGATTGACATTGTTTTTGCC (double strand) [PgghA]”, for which the binding result is “binds”.
As for “TTTTTCACAACCTAAGACTTCCTTCCAAAAATCCATAGGGCGGTGGAAGCTTAGCTATTTTTACCATTTTGTTTTGCCACTCAAATATTTACTTAAGGTGAGGTAAAAACTCATCTTTTTTTTACTAAAAATTGCGGCTAGAAATGTAATTTCGGCAATCCCCCCACCTTCTTTCCTGAAAACCGAATCTAACCTGGAAGGGGAAATTTTAAGATAGAACCATTCAAGGGTAATCAATTCCTTCCACACATCAGGAGTTAACATT (double strand) [PhspA]”, the binding entry is “binds”.
